Laboratory results reported in patent US20190062438A1 (CSL, published 2019).

Columns and labels:
shCD131 T106A = molecular target: T1, shCD131 T106A (human, UniProt P32927 17-438); experiment: SPR, Fab over captured mutant
T1 construct: C-terminal 6xHis
T1 sequence: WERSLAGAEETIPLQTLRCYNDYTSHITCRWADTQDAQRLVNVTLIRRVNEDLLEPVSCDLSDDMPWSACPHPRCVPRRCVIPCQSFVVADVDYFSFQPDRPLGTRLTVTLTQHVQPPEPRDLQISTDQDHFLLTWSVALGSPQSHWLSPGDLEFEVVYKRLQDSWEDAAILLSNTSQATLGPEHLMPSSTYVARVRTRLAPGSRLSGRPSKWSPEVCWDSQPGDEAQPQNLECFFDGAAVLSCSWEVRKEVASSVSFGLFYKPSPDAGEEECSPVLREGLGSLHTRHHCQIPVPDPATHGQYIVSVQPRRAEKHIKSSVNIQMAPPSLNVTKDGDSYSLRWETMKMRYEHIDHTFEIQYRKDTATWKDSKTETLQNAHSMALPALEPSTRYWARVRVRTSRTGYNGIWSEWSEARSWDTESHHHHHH
Experimental: For some analysis purified Fab was injected over each flow cell for 3 minutes and dissociation was monitored for a further 10 minutes. Regeneration of the surface was performed after each cycle with a 40 second injection of 25 mM glycine, pH 2.0. The analysis was performed with Fabs at several concentrations between 100 and 0.31 nM, with each concentration analyzed twice and in random order. The analysis was performed at a flow rate of 30 μl/min in HBS-EP buffer (10 mM Hepes, 150 mM NaCl, 3 mM EDTA, 0.005% Tween 20, pH 7.4) at 37° C. Responses from spots 2 and 4 of each flow cell, (in which shβc was not captured, but otherwise treated identically), were subtracted from those of spots 1 and 5 respectively to produce reference subtracted data. Reference subtracted responses from a blank injection comprising buffer alone were subtracted from the resultant sensorgrams to produce double referenced data suitable for kinetic analysis. […]
Mapping of the shCD131 epitope was performed by measurement of the affinity of Fabs for various alanine point mutants of shCD131 essentially as described above, with the following exceptions. […] For kinetic analysis, purified recombinant Fabs were injected for 2 minutes, and dissociation was monitored for a further 2 minutes. […] Kinetic parameters were determined as described above.

shCD131 Q339A = molecular target: T2, shCD131 Q339A (human, UniProt P32927 17-438); experiment: SPR, kinetics, Fab over captured mutant
T2 construct: C-terminal 6xHis
T2 sequence: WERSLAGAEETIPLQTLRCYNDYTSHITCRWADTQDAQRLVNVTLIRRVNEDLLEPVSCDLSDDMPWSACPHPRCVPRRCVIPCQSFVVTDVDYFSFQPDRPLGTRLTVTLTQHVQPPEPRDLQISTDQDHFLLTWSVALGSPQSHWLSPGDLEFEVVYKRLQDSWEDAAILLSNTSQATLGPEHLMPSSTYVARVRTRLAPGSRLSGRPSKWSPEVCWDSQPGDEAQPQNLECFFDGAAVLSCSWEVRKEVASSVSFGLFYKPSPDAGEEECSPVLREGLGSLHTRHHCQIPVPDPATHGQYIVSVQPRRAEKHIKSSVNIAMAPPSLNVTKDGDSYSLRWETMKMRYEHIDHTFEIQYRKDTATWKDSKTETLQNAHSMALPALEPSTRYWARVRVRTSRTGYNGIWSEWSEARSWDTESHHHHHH

B1: 9A2 Fab (Fab, V domains shown)
VH: EVQLLESGGGLVQPGGSLRLSCAASGFTFSHYHMLWVRQAPGKGLEWVSSIRSSGGFTYYADSVKGRFTISRDNSKNTLYLQMNSLRAEDTAVYYCARFYDSFFDIWGQGTMVTVSS
VL: DIQMTQSPSSVSASVGDRVTITCRASQGISSWLAWYQQKPGKAPKLLIYAASSLQSGVPSRFSGSGSGTDFTLTISSLQPEDFATYYCQQANSFPITFGQGTRLEIKR
notes: also called recombinant Fab of 9A2
shCD131 T106A
  fold increase in affinity relative to WT shCD131: ~10 fold
shCD131 Q339A
  Kd: 144 nM
